The values below come from PMC10917357, “Specific protein-RNA interactions are mostly preserved in biomolecular condensates”.

In data set [1] the target is SARS-CoV-2 nucleocapsid (N) (SARS-CoV-2, UniProt P0DTC9 1-419). Description: UV cross-linking MS (LLPS-CLIR-MS); Assay buffers largely not in the material; N protein in 20 mM sodium phosphate pH 6.0, 50 mM NaCl (fig. S7 dispersed mimic 300 mM NaCl); UV 254 nm; turbidity of N at room temperature; NMR 303 or 310 K. The conditions noted are these: protein: recombinant; tags: N-terminal His6 removed by TEV; chain copies: 2; label: 18O4-ATP post-digestion labeling; hairpin with internal loops.

In data set [2] the target is T1, PTBP1 (C250S/C251S) (Homo sapiens, UniProt P26599-1 1-531, C250S;C251S). Description: UV cross-linking MS (LLPS-CLIR-MS); dispersed and condensed phases; Assay buffers largely not in the material; N protein in 20 mM sodium phosphate pH 6.0, 50 mM NaCl (fig. S7 dispersed mimic 300 mM NaCl); UV 254 nm; turbidity of N at room temperature; NMR 303 or 310 K. The conditions noted are these: protein: recombinant; label: isotope-labeled; hairpin.

In data set [3] the target is T1, PTBP1 (C250S/C251S). Put plainly: UV cross-linking MS (LLPS-CLIR-MS); dispersed and condensed phases; RRM cross-links (H411, H457); Assay buffers largely not in the material; N protein in 20 mM sodium phosphate pH 6.0, 50 mM NaCl (fig. S7 dispersed mimic 300 mM NaCl); UV 254 nm; turbidity of N at room temperature; NMR 303 or 310 K. The conditions noted are these: protein: recombinant; label: 13C/15N-labeled and unlabeled 1:1; single strand.

In the next data set the target is FUS (UniProt P35637 1-526). Put plainly: UV cross-linking MS (LLPS-CLIR-MS); 0.075 and 0.1 eq RNA, 20 uM FUS; RRM (M321, Y325) and region C-terminal to ZnF; Assay buffers largely not in the material; N protein in 20 mM sodium phosphate pH 6.0, 50 mM NaCl (fig. S7 dispersed mimic 300 mM NaCl); UV 254 nm; turbidity of N at room temperature; NMR 303 or 310 K. The conditions noted are these: protein: recombinant; tags: GB1-His6 removed by TEV; label: isotope-labeled; two hairpins.

Take GGUUCACCGAGGCCACGCGGAGUACGAUCGAGUGUACAGUGAACC (structured_RNA) [s2m]: in data set [1], the binding result was “binds”.

As for GGGGGACUGCGUUCGCGCUUUCCC (structured_RNA) [U1-SL4], the binding result with PTBP1 (C250S/C251S) [2] is “binds”.

Consider GGGAGAUCUCUAAAAAUCUCUAAAAAUCUCUAAAAA (ssRNA) [3xUCUCU], for which the binding result with PTBP1 (C250S/C251S) [3] is reported as “binds”.

B1: U1-SL34 (structured_RNA)
RNA: GGGAUCCGAUUUCCCCAAAUGUGGGAAACUCGACUGCAUAAUUUGUGGUAGUGGGGGACUGCGUUCGCGCUUUCCCCUG
As to B1, the binding result with FUS was “binds”.
